± gives the uncertainty stated by the source.
B1: Serine/threonine-protein kinase A-Raf, residues 21 to 89; numbered along this chain, P10398 (parent)
chain: VKVYLPNKQRTVVTVRDGMSVYDSLDKALKVRGLNQDCCVVYRLIKGRKTVTAWDTAIAPLDGEELIVE

Variants of: B1
Test: abundance fitness (aPCA) (normalised: wild type 0, dead -1); higher = more abundant; growth selection in yeast, the domain comes from the species named
Details: Homo sapiens

Variant | abundance fitness
V51R | -0.002 ± 0.042
V51H | -0.156 ± 0.22
V51L | 0.026 ± 0.046
V51G | -0.662 ± 0.11
V51M | 0.093 ± 0.07
V51P | 0.031 ± 0.077
V51K | -0.001 ± 0.076
V51A | -0.102 ± 0.068
V51T | -0.324 ± 0.15
V51E | -0.128 ± 0.064
V51I | 0.102 ± 0.13
V51Q | -0.032 ± 0.064
V51Y | -0.255 ± 0.2
R43A | -0.721 ± 0.14
R43W | -0.911 ± 0.38
R43H | -0.072 ± 0.42
R43I | -1 ± 0.37
R43G | -0.907 ± 0.13
R43Q | -0.102 ± 0.076
R43K | -0.205 ± 0.083
R43M | -1 ± 0.23
R43P | -0.822 ± 0.33
R43T | -0.225 ± 0.067
R43L | -0.963 ± 0.12

Variant | abundance fitness
R43V | -0.703 ± 0.096
R43S | -0.305 ± 0.061
R43E | -0.824 ± 0.3
R43N | -0.602 ± 0.43
R43D | -0.939 ± 0.43
R43C | -0.742 ± 0.15
Y42V | -0.864 ± 0.1
Y42W | -0.366 ± 0.064
Y42T | -0.561 ± 0.09
Y42P | -0.926 ± 0.15
Y42S | -0.525 ± 0.093
Y42N | -0.159 ± 0.25
Y42Q | -0.945 ± 0.38
Y42R | -1.15 ± 0.23
W54P | -0.924 ± 0.14
W54K | -0.843 ± 0.13
W54Q | -0.916 ± 0.16
W54N | -0.917 ± 0.24
W54R | -0.879 ± 0.1
W54S | -0.808 ± 0.14
W54T | -0.797 ± 0.14
W54E | -0.96 ± 0.13
W54Y | -0.756 ± 0.2
W54F | -0.89 ± 0.29

Variant | abundance fitness
W54G | -1.03 ± 0.14
W54V | -0.913 ± 0.14
W54D | -0.743 ± 0.33
W54M | -0.499 ± 0.1
T50R | -0.173 ± 0.35
T50A | -0.227 ± 0.31
T50E | -0.515 ± 0.38
T50S | -0.402 ± 0.18
T50V | 0.362 ± 0.18
T50P | -0.715 ± 0.21
E64G | -0.25 ± 0.088
E64F | -0.867 ± 0.28
E64N | -0.026 ± 0.35
E64K | -0.295 ± 0.1
E64L | -0.01 ± 0.048
E64C | -0.571 ± 0.21
E64A | -0.206 ± 0.16
E64M | -0.085 ± 0.1
E64H | -0.339 ± 0.18
I45Q | -0.078 ± 0.087
I45M | -0.508 ± 0.12
I45P | -1.1 ± 0.32
I45C | -0.458 ± 0.2
I45A | -0.318 ± 0.079

Variant | abundance fitness
I45R | -0.098 ± 0.053
I45Y | -0.077 ± 0.19
I45D | -0.1 ± 0.13
I45V | -0.067 ± 0.12
I45T | -0.319 ± 0.12
I45F | -0.179 ± 0.074
I45G | -0.198 ± 0.12
I45N | -0.435 ± 0.27
I45S | -0.087 ± 0.071
I45W | -0.1 ± 0.073
I45E | -0.224 ± 0.079
I45L | -0.11 ± 0.051
I45K | 0.089 ± 0.18
I45H | -0.026 ± 0.14
R48E | 0.025 ± 0.087
R48L | -0.307 ± 0.062
R48S | -0.288 ± 0.069
R48A | -0.128 ± 0.06
R48T | -0.072 ± 0.1
R48M | -0.183 ± 0.1
R48W | -0.535 ± 0.082
R48H | -0.025 ± 0.38
R48V | 0.05 ± 0.07
R48P | -0.474 ± 0.16

Variant | abundance fitness
R48G | -0.479 ± 0.056
R48F | -0.216 ± 0.18
R48C | -0.366 ± 0.15
R48Q | -0.094 ± 0.095
R48K | 0.097 ± 0.085
R48D | -0.271 ± 0.094
G63V | -0.097 ± 0.06
G63F | -0.279 ± 0.1
G63R | -0.799 ± 0.073
G63N | -0.265 ± 0.31
G63Y | -0.376 ± 0.14
G63S | -0.107 ± 0.098
G63E | -0.486 ± 0.094
G63P | -0.533 ± 0.11
G63W | -0.78 ± 0.12
G63Q | -0.466 ± 0.1
G63H | -0.63 ± 0.47
G63C | -0.055 ± 0.07
G63A | -0.142 ± 0.086
G63T | -0.128 ± 0.084
G63D | -0.187 ± 0.16
G63M | -0.269 ± 0.1
G63K | -0.722 ± 0.17
D55K | -0.347 ± 0.051

Variant | abundance fitness
D55G | -0.204 ± 0.029
D55T | -0.335 ± 0.053
D55P | -0.852 ± 0.099
D55Q | -0.024 ± 0.045
D55E | -0.089 ± 0.036
D55F | -0.872 ± 0.13
D55M | -0.557 ± 0.064
D55C | -0.52 ± 0.087
D55R | -0.343 ± 0.025
D55A | -0.346 ± 0.041
D55I | -0.452 ± 0.14
D55Y | -0.648 ± 0.15
D55H | -0.234 ± 0.087
D55N | -0.098 ± 0.06
D55L | -0.908 ± 0.076
D55S | -0.168 ± 0.036
D55V | -0.773 ± 0.062
L44C | -0.684 ± 0.38
L44I | 0.073 ± 0.082
L44T | -0.169 ± 0.082
L44W | -0.059 ± 0.067
L44R | -0.108 ± 0.044
L44Y | -0.037 ± 0.2
L44A | -0.475 ± 0.07

Variant | abundance fitness
L44V | -0.112 ± 0.052
L44F | -0.197 ± 0.13
L44K | -0.031 ± 0.076
L44P | -0.853 ± 0.17
L44D | -0.65 ± 0.45
L44Q | -0.307 ± 0.1
L44E | -0.279 ± 0.08
L44G | -0.767 ± 0.09
L44M | 0.069 ± 0.072
L44N | -0.082 ± 0.17
L44S | -0.15 ± 0.06
K46D | 0.199 ± 0.2
K46H | -0.259 ± 0.11
K46S | -0.08 ± 0.058
K46L | -0.437 ± 0.063
K46C | -0.133 ± 0.11
K46E | 0.102 ± 0.08
K46W | -0.667 ± 0.093
K46V | -0.792 ± 0.089
K46N | 0.228 ± 0.17
K46R | -0.024 ± 0.034
K46Q | -0.009 ± 0.067
K46T | -0.383 ± 0.069
